Common to all, as to conditions: both partners purified
Assay [1] deals with T1, PARylated (activated) human PARP1 used in HDX-MS (human, UniProt P09874 1-1014, poly(ADP-ribose) (PARylated; sites not stated)).
T1 construct: human PARP1; also called PARylated PARP1
Put plainly: HDX-MS; ALC1^fl with and without PARylated or non-PARylated PARP1; 50 mM Tris, 50 mM NaCl, 5 mM MgCl2, 1.5 μM 239 bp dsDNA, 1 mM ATP, 1 mM TCEP pH 7.9, ~70% D2O, 23°C, five time points.

Assay [2] deals with T2, ALC1^cat (ATPase motor of human ALC1, residues 16-612), 6xHis-tagged (human, UniProt Q86WJ1 16-612).
T2 construct: human ALC1 (Amplified in liver cancer 1; CHD1L), residues 16-612; Made by PCR-based mutagenesis of the ALC1^fl construct (pNIC-CH2); also called ALC1/CHD1L variant that lacks the macro domain; source: E. coli Rosetta 2 (DE3), purified (HisTrap, Q HP, Superdex 200)
T2 sequence (looked up): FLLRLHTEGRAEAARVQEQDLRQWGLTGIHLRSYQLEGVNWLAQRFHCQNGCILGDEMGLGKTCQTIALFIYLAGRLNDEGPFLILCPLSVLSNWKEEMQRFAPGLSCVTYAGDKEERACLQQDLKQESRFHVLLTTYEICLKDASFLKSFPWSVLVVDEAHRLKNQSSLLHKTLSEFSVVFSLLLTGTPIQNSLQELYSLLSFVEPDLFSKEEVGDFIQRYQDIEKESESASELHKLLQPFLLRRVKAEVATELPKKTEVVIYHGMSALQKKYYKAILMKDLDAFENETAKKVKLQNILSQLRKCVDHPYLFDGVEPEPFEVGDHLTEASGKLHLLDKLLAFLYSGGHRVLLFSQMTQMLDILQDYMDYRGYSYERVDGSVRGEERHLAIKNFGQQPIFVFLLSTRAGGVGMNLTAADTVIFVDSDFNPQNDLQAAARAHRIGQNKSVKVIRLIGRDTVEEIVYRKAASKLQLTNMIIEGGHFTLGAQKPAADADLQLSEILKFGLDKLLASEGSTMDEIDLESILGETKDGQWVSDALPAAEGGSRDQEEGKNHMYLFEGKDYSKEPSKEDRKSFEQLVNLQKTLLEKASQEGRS
Briefly: SEC; 7 nmol each of ALC1^cat and ALC1^macro mixed, 10 min on ice, Superdex 200 10/300 GL, 20 mM MES pH 6.5, 300 mM NaCl, 10% glycerol, 0.5 mM TCEP; peak fractions on SDS-PAGE. (In general: SEC sorts molecules by how far they enter the pores of the column.)

Assay [3] addresses T2, ALC1^cat (ATPase motor of human ALC1, …). Put plainly: pull-down; 5 μM 6xHis-ALC1^cat and 5 μM ALC1^macroΔ6xHis, Ni-NTA agarose, 1 h at 4°C, 20 mM HEPES pH 7.5, 300 mM NaCl, 10% glycerol, 20 mM imidazole, 0.5 mM TCEP; where indicated 5 μM GST-PARP1 pre-incubated with dsDNA and NAD+; eluate on SDS-PAGE.
In assay [4] the target is T3, PARylated GST-tagged human PARP1 (human, UniProt P09874 1-1014, poly(ADP-ribose) (PARylated by incubation with dsDNA and NAD+; sites not stated)).
T3 construct: human PARP1; also called PARylated PARP1; GST-tagged PARP1 (BPS Bioscience); source: bought: BPS Bioscience; incubated with 230 bp dsDNA and NAD+ for 5 min at 37°C
T3 sequence (P09874 whole entry): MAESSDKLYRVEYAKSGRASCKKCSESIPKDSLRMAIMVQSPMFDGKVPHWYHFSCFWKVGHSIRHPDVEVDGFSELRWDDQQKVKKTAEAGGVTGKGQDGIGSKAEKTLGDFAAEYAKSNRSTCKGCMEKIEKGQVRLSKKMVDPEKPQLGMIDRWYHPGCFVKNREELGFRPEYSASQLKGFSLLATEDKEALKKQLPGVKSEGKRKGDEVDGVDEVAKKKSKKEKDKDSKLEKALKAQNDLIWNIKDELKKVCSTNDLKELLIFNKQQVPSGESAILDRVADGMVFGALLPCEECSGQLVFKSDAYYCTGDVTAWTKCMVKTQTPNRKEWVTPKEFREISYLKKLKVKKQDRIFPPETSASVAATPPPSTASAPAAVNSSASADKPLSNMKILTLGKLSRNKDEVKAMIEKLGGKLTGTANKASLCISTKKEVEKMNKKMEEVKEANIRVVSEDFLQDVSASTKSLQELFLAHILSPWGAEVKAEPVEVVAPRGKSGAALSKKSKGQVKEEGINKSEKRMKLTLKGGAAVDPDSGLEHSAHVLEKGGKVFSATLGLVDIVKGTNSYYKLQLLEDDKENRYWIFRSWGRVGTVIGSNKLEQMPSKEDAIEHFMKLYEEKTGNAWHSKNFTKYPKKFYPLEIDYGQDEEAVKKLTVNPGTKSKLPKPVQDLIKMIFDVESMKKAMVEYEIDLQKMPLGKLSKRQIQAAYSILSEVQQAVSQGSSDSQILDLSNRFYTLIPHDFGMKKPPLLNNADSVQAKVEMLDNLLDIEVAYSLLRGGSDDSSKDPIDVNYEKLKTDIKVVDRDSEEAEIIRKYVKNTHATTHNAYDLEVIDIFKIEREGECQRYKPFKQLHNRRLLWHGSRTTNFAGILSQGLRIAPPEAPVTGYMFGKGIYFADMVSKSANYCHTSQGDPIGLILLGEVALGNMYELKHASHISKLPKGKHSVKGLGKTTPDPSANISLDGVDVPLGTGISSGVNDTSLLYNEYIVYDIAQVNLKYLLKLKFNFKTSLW
The description is as above.

T1 sequence (P09874 whole entry): as above

B1: ALC1^fl (essentially full-length human ALC1, residues 16-879), 6xHis-tagged (enzyme, UniProt Q86WJ1 16-879, looked up)
chain: FLLRLHTEGRAEAARVQEQDLRQWGLTGIHLRSYQLEGVNWLAQRFHCQNGCILGDEMGLGKTCQTIALFIYLAGRLNDEGPFLILCPLSVLSNWKEEMQRFAPGLSCVTYAGDKEERACLQQDLKQESRFHVLLTTYEICLKDASFLKSFPWSVLVVDEAHRLKNQSSLLHKTLSEFSVVFSLLLTGTPIQNSLQELYSLLSFVEPDLFSKEEVGDFIQRYQDIEKESESASELHKLLQPFLLRRVKAEVATELPKKTEVVIYHGMSALQKKYYKAILMKDLDAFENETAKKVKLQNILSQLRKCVDHPYLFDGVEPEPFEVGDHLTEASGKLHLLDKLLAFLYSGGHRVLLFSQMTQMLDILQDYMDYRGYSYERVDGSVRGEERHLAIKNFGQQPIFVFLLSTRAGGVGMNLTAADTVIFVDSDFNPQNDLQAAARAHRIGQNKSVKVIRLIGRDTVEEIVYRKAASKLQLTNMIIEGGHFTLGAQKPAADADLQLSEILKFGLDKLLASEGSTMDEIDLESILGETKDGQWVSDALPAAEGGSRDQEEGKNHMYLFEGKDYSKEPSKEDRKSFEQLVNLQKTLLEKASQEGRSLRNKGSVLIPGLVEGSTKRKRVLSPEELEDRQKKRQEAAAKRRRLIEEKKRQKEEAEHKKKMAWWESNNYQSFCLPSEESEPEDLENGEESSAELDYQDPDATSLKYVSGDVTHPQAGAEDALIVHCVDDSGHWGRGGLFTALEKRSAEPRKIYELAGKMKDLSLGGVLLFPVDDKESRNKGQDLLALIVAQHRDRSNVLSGIKMAALEEGLKKIFLAAKKKKASVHLPRIGHATKGFNWYGTERLIRKHLAARGIPTYIYYFPRSK
notes: human ALC1 (CHD1L), residues 16-879; also called Human ALC1^fl (16-879) pNIC-CH2; source: E. coli Rosetta 2 (DE3), purified (HisTrap, Q HP/SP HP, Superdex 200)
In the case of B1, the binding result in assay [1] is listed as “binds”.

B2: ALC1^macro (macro domain construct of human ALC1, residues 613-879), 6xHis-tagged (domain or fragment, UniProt Q86WJ1 613-879, looked up)
chain: LRNKGSVLIPGLVEGSTKRKRVLSPEELEDRQKKRQEAAAKRRRLIEEKKRQKEEAEHKKKMAWWESNNYQSFCLPSEESEPEDLENGEESSAELDYQDPDATSLKYVSGDVTHPQAGAEDALIVHCVDDSGHWGRGGLFTALEKRSAEPRKIYELAGKMKDLSLGGVLLFPVDDKESRNKGQDLLALIVAQHRDRSNVLSGIKMAALEEGLKKIFLAAKKKKASVHLPRIGHATKGFNWYGTERLIRKHLAARGIPTYIYYFPRSK
notes: human ALC1 (CHD1L), residues 613-879 (linker and macro domain); Made from the ALC1^fl construct (pNIC-CH2); no cleavage of the tag is described for this version; source: E. coli Rosetta 2 (DE3), purified (HisTrap, Q HP/SP HP, Superdex 200)
On to B2, for which the binding result in assay [2] is listed as “binds”.

B3: ALC1^macroΔ6xHis (macro domain construct of human ALC1, residues 613-879, 6xHis tag removed by TEV) (domain or fragment, UniProt Q86WJ1 613-879, looked up)
chain: B2 chain
notes: human ALC1 (CHD1L), residues 613-879; A TEV-cleavage site was added to the ALC1^macro construct; also called ALC1^macro6xΔHis; non-tagged macro domain; source: E. coli Rosetta 2 (DE3), purified; TEV cleavage of the 6xHis tag, second HisTrap flow-through
As for B3, the binding result in assay [3] and in assay [4] was “binds” throughout.

For the origin of these results see paper PMC5745148, “Mechanistic Insights into Autoinhibition of the Oncogenic Chromatin Remodeler ALC1” (Molecular Cell, 2017).
